Measurements from US9932404B2.
Substitutions are numbered along the chain they refer to.

B1: mAb c1811 (antibody, V domains shown)
VH: EVQLVASGGGLVKPGASLKLSCVASGFTFSDYWMAWVRQTPGKPMEYIGDIKSDGSKVNYAPSLKNRFTISRDNARTTLYLQMSNVRSEDTATYYCNRDIGPDWYFDFWGPGTMVTVSS
VL: DIQMTQSPTSLSASLGETVTIECRASEDIYNGLAWYQQKPGKSPQLLIYDSNSLHTGVPSRFSGRGSGTQYSLRINSLQSEDVASYFCQQYYDYPLTFGSGTKLEIKR
B2: mAb 8 (antibody, V domains shown)
VH: QVELQQSGPGLVKPSQTLSLTCAISGDSVSSNSAAWGWIRQSPGRGLEWLGIIQTRSKWYNDYAVSVKSRITINPDTSKNQFSLQLNSVTPEDTAVYYCARYSYPFYSIDYWGQGTLVTVSS
VL: DIELTQPPSVSVAPGQTARISCSGDNIGSYYVHWYQQKPGQAPVLVIYEDSERPSGIPERFSGSNSGNTATLTISGTQAEDEADYYCQSYDSQFSFGVFGGGTKLTVL
B3: mAb 18 (antibody, V domains shown)
VH: B2 VH with T55K, D62N
VL: B2 VL
B4: mAb 11 (antibody, V domains shown)
VH: B2 VH with T55K, D62N
VL: DIELTQPPSVSVAPGQTARISCSGDNIGSYYVHWYQQKPGQAPVLVIYEDSERPSGIPERFSGSNSGNTATLTISGTQAEDEADYYCSSYDEPNFNVFGGGTKLTVL
B5: mAb 9 (antibody, V domains shown)
VH: B2 VH with T55I, V65L
VL: B2 VL
B6: mAb 10 (antibody, V domains shown)
VH: B2 VH with T55K, D62N
VL: B4 VL with S88Q, E92T, N94V, F95Y, N96S
B7: mAb 12 (antibody, V domains shown)
V domain 1: B2 VH with T55K, D62N
V domain 2: B2 VH with Q1D, V2I, T55K, D62N
B8: mAb 13 (antibody, V domains shown)
VH: QVELVQSGAEVKKPGESLKISCKGSGYSFTNYWVGWVRQMPGKGLEWMGFIDPSDSYTNYAPSFQGQVTISADKSISTAYLQWSSLKASDTAMYYCARELYQGYMDTFDSWGQGTLVTVSS
VL: DIQMTQSPSSLSASVGDRVTITCRASQSIGLYLAWYQQKPGKAPKLLIYAASSLQSGVPSRFSGSGSGTDFTLTISSLQPEDFATYYCQQGESILSTFGQGTKVEIK
B9: mAb 19 (antibody, V domains shown)
VH: B8 VH
VL: B8 VL with G91Y, E92G, I94V, L95S, S96I
B10: mAb 14 (antibody, V domains shown)
VH: B8 VH
VL: DIQMTQSPSSLSASVGDRVTITCRASQSIGLYLAWYQQKPGKAPKLLIYAASSLQSGVPSRFSGSGSGTDFTLTISSLQPEDFATYYCQQAETVSPTFGQGTKVEIKR
B11: mAb 1 (antibody, V domains shown)
V domain 1: GVELVQSGAEVKKPGESLKISCKGSGYSFTDNWISWVRQAPGKGLEWMGVIDPSDSYTNYAPSFQGQVTISADKSISTAYLQWSSLKASDTAMYYCAREWGIGGMVDIWG
V domain 2: DIVLTQSPATLSLSPGERATLSCRASQYIDISYLAWYQQKPGQAPRLLIYDASSRATGVPARFSGSGSGTDFTLTISSLEPEDFAVYYCQQYYSLSITFGQGTKVEIK
B12: mAb 4 (antibody, V domains shown)
VH: QVELQQSGPGLVKPSQTLSLTCAISGDSVSTRSAAWGWIRQSPGRGLEWLGKISYRSRWYNDYAVSVKSRITINPDTSKNQFSLQLNSVTPEDTAVYYCARHTYPYLSFDVWGQGTLVTVSS
VL: DIELTQPPSVSVAPGQTARISCSGDALGGYFVSWYQQKPGQAPVLVIYDDDNRPSGIPERFSGSNSGNTATLTISGTQAEDEADYYCASYDGDEFTVFGGGTKLTVL
B13: mAb 7 (antibody, V domains shown)
VH: B12 VH with K52R, S54Y, Y55M, R58K
VL: B12 VL with A88S, G92S, E94S, F95L
B14: mAb 17 (antibody, V domains shown)
VH: B12 VH with K52R, S54Y, Y55M, R58K
VL: B12 VL
B15: mAb 3 (antibody, V domains shown)
VH: B12 VH with K52R, S54H, Y55R, R58K
VL: B12 VL
B16: mAb 5 (antibody, V domains shown)
VH: B12 VH with K52R, S54Y, Y55M, R58K
VL: B12 VL with A88Q, G92E, E94S, F95A
B17: mAb 6 (antibody, V domains shown)
VH: B12 VH with K52R, S54Y, Y55M, R58K
VL: B12 VL with A88G, G92S, D93N, E94S, F95L
B18: mAb 16 (antibody, V domains shown)
VH: QVELVQSGAEVKKPGESLKISCKGSGYSFNNYWIGWVRQMPGKGLEWMGIIDPGDSYTNYAPSFQGQVTISADKSISTAYLQWSSLKASDTAMYYCARNIYEFDYWGQGTLVTVSS
VL: DIQMTQSPSSLSASVGDRVTITCRASQGISSWLNWYQQKPGKAPKLLIYGASNLQSGVPSRFSGSGSGTDFTLTISSLQPEDFAVYYCQQYDDFSITFGQGTKVEIK
B19: mAb 2 (antibody, V domains shown)
VH: B18 VH with G54Q, Y57W
VL: B18 VL

target: full-length murine TLR3 (mouse); experiment: not given

| Binder | IC50, poly(I:C)-induced ISRE luciferase reporter |
| --- | --- |
| B1 | 0.7 µg/mL |

target: human TLR3 extracellular domain (amino acids 1-703) with C-terminal poly-histidine tag (human); experiment: ELISA, coated huTLR3 ECD

| Binder | EC50 |
| --- | --- |
| B2 | 0.0186 µg/mL |
| B3 | 0.00968 µg/mL |
| B4 | 0.0263 µg/mL |
| B5 | 0.0226 µg/mL |
| B6 | 0.0158 µg/mL |
| B7 | 0.0256 µg/mL |
| B8 | 0.0235 µg/mL |
| B9 | 0.0665 µg/mL |
| B10 | 0.0336 µg/mL |
| B11 | 0.0172 µg/mL |
| B12 | 0.0128 µg/mL |
| B13 | 0.0161 µg/mL |
| B14 | 0.0138 µg/mL |
| B15 | 0.0234 µg/mL |
| B16 | 0.0199 µg/mL |
| B17 | 0.019 µg/mL |
| B18 | 0.0437 µg/mL |
| B19 | 0.0531 µg/mL |

target: human TLR3 extracellular domain (amino acids 1-703) with C-terminal poly-histidine tag (human); experiment: Biacore (data not shown)

| Binder | Kd |
| --- | --- |
| B2 | < 10 nM |
| B3 | < 10 nM |
| B4 | < 10 nM |
| B5 | < 10 nM |
| B6 | < 10 nM |
| B7 | < 10 nM |
| B8 | < 10 nM |
| B9 | < 10 nM |
| B10 | < 10 nM |
| B11 | < 10 nM |
| B12 | < 10 nM |
| B13 | < 10 nM |
| B14 | < 10 nM |
| B15 | < 10 nM |
| B16 | < 10 nM |
| B17 | < 10 nM |
| B18 | < 10 nM |
| B19 | < 10 nM |
